Reference: US20200109182A1, “GLP-1 ANALOG FUSION PROTEIN AND PREPARATION METHOD AND APPLICATION THEREOF” (JIANGSU T-MAB BIOPHARMA CO., LTD, priority 2013, published 2020)

Target: GLP-1 receptor (GLP-1R) on CHO DG44 2-A4-2-A8 cells
Experiment: cell-based or functional assay

“GLP-1 (7-37) (Val^8-GLP-1 (7-37)) (from UniProt P01275 27-57) (peptide)” showed an EC50 (CRE-luciferase reporter, test NO. 1) of 0.75 nM, an EC50 (CRE-luciferase reporter, test NO. 2) of 0.368 nM and an EC50 (CRE-luciferase reporter, test NO. 3) of 0.364 nM.
